The text below walks through data of patent US20050048603A1 (priority 2001, published 2005).

One series addresses T1, mycoAC204-443R376A (Mycobacterium tuberculosis, UniProt P9WQ35 204-443).
T1 sequence: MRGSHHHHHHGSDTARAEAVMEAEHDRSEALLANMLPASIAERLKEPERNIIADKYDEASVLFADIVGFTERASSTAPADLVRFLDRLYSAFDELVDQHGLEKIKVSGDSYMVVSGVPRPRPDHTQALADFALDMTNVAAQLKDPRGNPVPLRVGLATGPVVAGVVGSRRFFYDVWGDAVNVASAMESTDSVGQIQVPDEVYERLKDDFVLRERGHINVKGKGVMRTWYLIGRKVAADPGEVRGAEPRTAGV

In general, Kd refers to the free concentration of one partner at which half of the binding sites on the other are occupied at equilibrium, for simple one-to-one binding. Lower therefore signals higher affinity.

B1: mycoAC204-443 (protein)
chain: MRGSHHHHHHGSDTARAEAVMEAEHDRSEALLANMLPASIAERLKEPERNIIADKYDEASVLFADIVGFTERASSTAPADLVRFLDRLYSAFDELVDQHGLEKIKVSGDSYMVVSGVPRPRPDHTQALADFALDMTNVAAQLKDPRGNPVPLRVGLATGPVVAGVVGSRRFFYDVWGDAVNVASRMESTDSVGQIQVPDEVYERLKDDFVLRERGHINVKGKGVMRTWYLIGRKVAADPGEVRGAEPRTAGV
Consider B1, for which the “specific adenylyl cyclase activity against protein concentration” value in the series with P9WQ35 is “From 50 to 300 nM it increased five-fold”.

B2: mycoAC204-443D300A (enzyme)
chain: MRGSHHHHHHGSDTARAEAVMEAEHDRSEALLANMLPASIAERLKEPERNIIADKYDEASVLFADIVGFTERASSTAPADLVRFLDRLYSAFDELVDQHGLEKIKVSGASYMVVSGVPRPRPDHTQALADFALDMTNVAAQLKDPRGNPVPLRVGLATGPVVAGVVGSRRFFYDVWGDAVNVASRMESTDSVGQIQVPDEVYERLKDDFVLRERGHINVKGKGVMRTWYLIGRKVAADPGEVRGAEPRTAGV
B2 had a Kd with mycoAC204-443R376A of 2000 nM. In other words, the single-digit micromolar range.

B3: mycoAC204-443D256A (enzyme)
chain: MRGSHHHHHHGSDTARAEAVMEAEHDRSEALLANMLPASIAERLKEPERNIIADKYDEASVLFAAIVGFTERASSTAPADLVRFLDRLYSAFDELVDQHGLEKIKVSGDSYMVVSGVPRPRPDHTQALADFALDMTNVAAQLKDPRGNPVPLRVGLATGPVVAGVVGSRRFFYDVWGDAVNVASRMESTDSVGQIQVPDEVYERLKDDFVLRERGHINVKGKGVMRTWYLIGRKVAADPGEVRGAEPRTAGV
In turn, B3 returned a Kd in the series with mycoAC204-443R376A of 2000 nM.
